Key:
[1] = molecular target: Isoform 121 of human VEGF-A (Peprotech) (human) (UniProt P15692); assay: ELISA on coated antigen, 20 µg/mL; negative control
[2] = molecular target: P6447aa-VEGF fusion protein (human (VEGF part); Neisseria meningitidis (P64K part)); assay: as above
[3] = molecular target: Isoform 121 of human VEGF-A (Peprotech) (human) (UniProt P15692); assay: ELISA, antigen coated at 5 µg/mL, KDR-Fc 0.125 µg/mL
[4] = molecular target: Isoform 121 of human VEGF-A (Peprotech) (human) (UniProt P15692); assay: ELISA, antigen coated at 5 µg/mL, KDR-Fc 1.0 µg/mL
[5] = molecular target: Isoform 121 of human VEGF-A (Peprotech) (human) (UniProt P15692); assay: ELISA, antigen coated at 5 µg/mL, KDR-Fc 0.5 µg/mL
[6] = molecular target: Isoform 121 of human VEGF-A (Peprotech) (human) (UniProt P15692); assay: ELISA, antigen coated at 5 µg/mL, KDR-Fc 0.25 µg/mL

Chain of soluble human receptor KDR-Fc (Sigma) (P35968 20-764 limits assumed): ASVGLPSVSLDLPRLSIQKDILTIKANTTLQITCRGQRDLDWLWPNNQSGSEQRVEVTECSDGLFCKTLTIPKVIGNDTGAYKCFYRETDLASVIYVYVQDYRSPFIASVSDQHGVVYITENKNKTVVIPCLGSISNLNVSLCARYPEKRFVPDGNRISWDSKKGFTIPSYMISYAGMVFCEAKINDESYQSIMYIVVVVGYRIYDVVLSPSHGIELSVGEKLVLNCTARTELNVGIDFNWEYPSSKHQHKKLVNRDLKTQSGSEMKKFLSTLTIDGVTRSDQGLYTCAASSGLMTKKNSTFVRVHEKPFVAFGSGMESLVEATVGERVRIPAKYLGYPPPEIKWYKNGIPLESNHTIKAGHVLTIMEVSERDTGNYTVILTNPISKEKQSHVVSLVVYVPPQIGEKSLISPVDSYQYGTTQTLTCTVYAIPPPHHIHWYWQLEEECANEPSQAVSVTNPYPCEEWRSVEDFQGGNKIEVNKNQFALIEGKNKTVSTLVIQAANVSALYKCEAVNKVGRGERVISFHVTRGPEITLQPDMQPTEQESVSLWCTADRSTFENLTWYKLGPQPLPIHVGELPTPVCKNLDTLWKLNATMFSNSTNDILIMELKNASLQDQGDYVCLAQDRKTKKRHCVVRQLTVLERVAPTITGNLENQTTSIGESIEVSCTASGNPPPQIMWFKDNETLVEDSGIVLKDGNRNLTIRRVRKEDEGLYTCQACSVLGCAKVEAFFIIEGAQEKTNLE
Chain of Isoform 121 of human VEGF-A (Peprotech) (human) (P15692 other isoform, or with tags, fused parts or gaps): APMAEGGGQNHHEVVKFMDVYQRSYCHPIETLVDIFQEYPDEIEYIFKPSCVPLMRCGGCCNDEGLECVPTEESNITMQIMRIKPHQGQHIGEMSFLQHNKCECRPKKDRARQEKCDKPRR

| absorbance at 492 nm [3] [OD 492 nm] | absorbance at 492 nm [4] [OD 492 nm] | absorbance at 492 nm [5] [OD 492 nm] | absorbance at 492 nm [6] [OD 492 nm] | Substance | absorbance at 492 nm [1] [OD 492 nm] | absorbance at 492 nm [2] [OD 492 nm] |
| --- | --- | --- | --- | --- | --- | --- |
|  |  |  |  | TheraCIM (anti EGF receptor humanized IgG1 antibody; CIMAB SA, Havana) | 0.097 | 0.112 |
| 0.76 | 1.48 | 1.27 | 1.04 | soluble human receptor KDR-Fc (Sigma) (from UniProt P35968 20-764) (Fc fusion) |  |  |
